Test results from the domain aggregation screens of Martell et al. (2025).

Assay: soluble fraction after stress (log2 fold change); higher = more stays soluble; pooled small domains, quantitative proteomics
Details: stress: pH 4
In short: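 Pooled custom libraries of small protein domains were subjected to pH 4 and measured by high-throughput quantitative proteomics. The log2 fold change in soluble amount per domain is reported, higher values meaning more remained soluble. This is used as a measure of aggregation propensity.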

| Sequence | soluble fraction (log2) |
| --- | --- |
| HMIESLKGILHKKDPTIAIIDVGGVRLSVNITLSTYEKLEEINSSIELLTYFNVREDAMELYG | -0.377 |
| HMIETIIGAEGKVLETIDNFNQKGVVALAGKEWTARSADASIIPEGAKVSVVEISGVKLIVTQN | -0.24 |
| HMIETLGDATFKRLKAMILDGTLEPGTRLSEKKFADHLGVSRTPVREAIGQLVSEGLAKRSAGSAPVVSS | 0.069 |
| HMIFSIIPGQIRLTKMEIADGYLVLYGFTPSKEIYNLHLNPALKSIFTSSETSFIPVSGGLKFMSTNKL | -0.442 |
| HMIGAKVLVNGQLHRDSYGEGPGQTESNATRLVNYINMKGSHPYHVTTLDGGWRGWVTADSVQV | ≥ 0.43 |
| HMIGDNNELFQKAQLTPREKEVALLLLQGETNSDIAKILYVGLSTVKKHISSIFEKTKVKSRTEFISKVR | 0.0668 |
| HMIGDYALILNIKGGSDWYLGNRVELLFTDGTSKIVTTDKDYNAKKDMVPTQIVTYKVNDNGEYSLKALPT | -1.2 |
| HMIGEKLKEIREKTGMNKKEFAQYLGLKYTTYNNYETEAREPASDFLILISTKFDVSIDYLLGLQ | -0.389 |
| HMIGIEALAGEIDRVRQVLTGGGGLSDVQLFSQLKALNEIKAALGASPDPRAPELVQRVDQLLEAAFRS | -1.1 |
| HMIGIGSDVPNKLKPAIYSFGLVAVGEKSVIPDGVQIGKNTAVSGVTSKEDYPDGVLESGETLIKA | 0.22 |
| HMIGKLTSSKLAAIHKMKTNELLAHFTEKGFLNINDAGKYILTQQGKDVGAEFKTSQYGGYFLWPENIE | 0.0031 |
| HMIGTPLSEWQKDAPEEITRDQIAELVILKFVTVEQLALASDAQLQRIGMGGVGLRERAKLYLNRK | -0.316 |
| HMIGVNMEKSTVEKFANELNLPIDLLLKQLESAGIKKTSGAEELLEADKSALLNYLQIEHGA | -0.678 |
| HMIGVQEFAMTYALTRRETEITQLIIQGKSNAMIAGELFISETTVKKHVSNIFEKTGVSRREELMVRVQAE | -1.45 |
| HMIHANGLTDRQEMILEFIRSYISENNYPPSVREIGKGVGLASSASVHNNMKKLASLGFLNWDTD | -0.194 |
| HMIHFDHPERSILDTMLYEKKGMTAQSARNRLAAYQFQGEDVFKPVSVLSGGELSRITLAIKNAMADK | 0.0479 |
| HMIHQPNNETTRNLIAGVVKKSLSVWETRVQVDGVDVTTAKDNLAEVHINIRYRLRHNQTPASLGLRLNLG | -0.15 |
| HMIHSEDMDDHILGHKLVDQYLNKHIEFDNIKKAWNYHTVAIKKFGRYPHRNKILKRESTIEEIDFLKQP | -0.298 |
| HMIHSEEIQDHIFVKQLGEVFLRNHINYENIMKSWDDHTNVIKRFRRYPHRNKILNRESTIDEISFLKE | -0.0283 |
| HMIIDTELMTRVMKFGFSQADASDLVAQHSDDLLRTAISRVEARAESKGMTPLETPAGYFRWTLQDLVRNP | -2.02 |
| HMIIIMKKSATNSEVRKVIERAEKEGLTVQVNQLEKQQVLGLVGDTRLIQDVAFLRYEGVENVERI | 0.206 |
| HMIILYTDEQQRIIDRLNEFIGEQPSQNEAAKLLGISAPILTNLRKGTYTGTVDKFMNKLAAYFNIKADLG | -0.372 |
| HMIIMVNLYQIWDKEVQGLDSVGAKPEQIEARRQAIAAHFESKARQAGMSSKDIYATLDNFDTYSRQKTS | -1.3 |
| HMIINFDAIRLTTELNKYNRHKAIPNSFFDGTFTILDVRDLYDSLSPKVQKIADTLIEQYNVDVKQ | -1.22 |
| HMIISMKKGATPQEISHVRKLIEELGYKVHESQGSERMVFGAIGDERSKHRLTSLEAQPGVEKVIPILA | 0.168 |
| HMIISMKKTATKEQIAHVRELIEGMGYKAHMSVGAERVIFGAIGDERGKERLVSLEAQPGVEKVIPIL | ≥ 0.43 |
| HMIITLNIENLKRARENAGLTQTQAAQKIGVSDGTYKNYEQGKREPNGDKIVTIANAFGVTTDYLLGR | 0.22 |
| HMIIVMRKGATEAQVNDIVERVRAAGFGVHLSQGEERTIIGAIGGDRAVLADLNLEAAPGVERVTPIS | -0.0491 |
| HMIIYGLNPVKDFINLFPNKISTLFISKNKLSDSEMKSVVNINTVYVSDAELKRITGTTKHQSLAAEID | -0.721 |
| HMIKILGSAYRHGLDDDDILRAWNYHIQEFFEGEDPEKIVRLGFDTHGRLLEIGGEIYPGGGEKIFHAM | -0.719 |
